From PMC10786891, “Massively parallel profiling of RNA-targeting CRISPR-Cas13d”

Target: T1, EsCas13d, nuclease-dead (Eubacterium siraeum, UniProt B0MS50, R295A;H300A;R849A;H854A)
T1 sequence: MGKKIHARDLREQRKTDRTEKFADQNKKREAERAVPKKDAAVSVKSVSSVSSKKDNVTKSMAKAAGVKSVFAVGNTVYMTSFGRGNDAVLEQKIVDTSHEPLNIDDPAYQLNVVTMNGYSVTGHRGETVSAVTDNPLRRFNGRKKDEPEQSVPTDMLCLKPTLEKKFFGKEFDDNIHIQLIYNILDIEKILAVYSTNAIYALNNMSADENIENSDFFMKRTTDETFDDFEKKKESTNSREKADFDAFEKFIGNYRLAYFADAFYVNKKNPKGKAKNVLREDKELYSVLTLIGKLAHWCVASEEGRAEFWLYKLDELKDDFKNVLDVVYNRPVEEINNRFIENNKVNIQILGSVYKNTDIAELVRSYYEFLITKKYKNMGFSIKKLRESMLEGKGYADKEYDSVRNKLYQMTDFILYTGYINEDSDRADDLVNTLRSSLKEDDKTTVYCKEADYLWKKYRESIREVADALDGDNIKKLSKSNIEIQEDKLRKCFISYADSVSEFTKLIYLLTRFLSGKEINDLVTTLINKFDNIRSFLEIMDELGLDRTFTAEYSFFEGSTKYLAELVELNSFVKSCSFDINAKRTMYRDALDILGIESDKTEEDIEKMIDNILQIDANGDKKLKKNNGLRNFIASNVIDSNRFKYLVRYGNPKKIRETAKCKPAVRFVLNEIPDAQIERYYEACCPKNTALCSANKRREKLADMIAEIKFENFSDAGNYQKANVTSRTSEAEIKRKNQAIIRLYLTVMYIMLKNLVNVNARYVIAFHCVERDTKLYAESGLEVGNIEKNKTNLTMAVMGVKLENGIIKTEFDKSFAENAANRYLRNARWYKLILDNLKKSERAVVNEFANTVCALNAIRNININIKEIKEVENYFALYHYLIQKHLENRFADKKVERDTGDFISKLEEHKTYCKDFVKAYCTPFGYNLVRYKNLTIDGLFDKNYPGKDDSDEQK
Assay: crRNA (strand 1, pre-loaded); Mg2+; 40 mM Tris-HCl pH 7.5, 150 mM NaCl, 6 mM MgCl2, 1 mM DTT, 0.1% Tween-20, 0.2 mg/ml BSA; 25 C; 10 min per concentration, then washed
Conditions: tags: His6-TwinStrep-SUMO cleaved; N-terminal SNAP kept (SNAP-Surface 488); label: 3' end held by stalled T7 RNA polymerase

| Binder | Kd [nM] |
| --- | --- |
| target 3 insC 3' of 12,insA 3' of 2 (mixed) RNA 1: CACCCGUGCAAAAUUGCAGGGGUCUAAAACGACCUGAAUAUUUCAGAUCAAA RNA 2: GGGAAUGGAUCCACAUCUACGAAUUCGUUUUUGAUCUGAACAUAUUCAGGUACUGCAGAUCGGAAGAGCACACGU | ~102 |
| target 3 G3A,U7A (mixed) RNA 1: CACCCGUGCAAAAUUGCAGGGGUCUAAAACGACCUGAAUAUUUCAGAUCAAA RNA 2: GGGAAUGGAUCCACAUCUACGAAUUCGUUUUUGAUCUGAAAUAUACAGAUCUGCAGAUCGGAAGAGCACACGU | 72.5 ± 14.5 |
| target 1 insA 3' of 21,insC 3' of 18 (mixed) RNA 1: CACCCGUGCAAAAAUGCAGGGGUCUAAAACUGAGCGGAUAACCUCUCUAUGG RNA 2: GGGAAUGGAUCCACAUCUACGAAUUCGUACCAAUACGAGAGGUUAUCCGCUCACCGAGAUCGGAAGAGCACACGU | 47 ± 7 |
| target 3 U2G,A9G (mixed) RNA 1: CACCCGUGCAAAAUUGCAGGGGUCUAAAACGACCUGAAUAUUUCAGAUCAAA RNA 2: GGGAAUGGAUCCACAUCUACGAAUUCGUUUUUGAUCUGAAAUGUUCAGGGCUGCAGAUCGGAAGAGCACACGU | 36 ± 5 |
| target 3 G4A,A5C (mixed) RNA 1: CACCCGUGCAAAAUUGCAGGGGUCUAAAACGACCUGAAUAUUUCAGAUCAAA RNA 2: GGGAAUGGAUCCACAUCUACGAAUUCGUUUUUGAUCUGAAAUAUUCCAGUCUGCAGAUCGGAAGAGCACACGU | 99 ± 21 |
| target 3 insG 3' of 6,insU 3' of 3 (mixed) RNA 1: CACCCGUGCAAAAUUGCAGGGGUCUAAAACGACCUGAAUAUUUCAGAUCAAA RNA 2: GGGAAUGGAUCCACAUCUACGAAUUCGUUUUUGAUCUGAAAUAUUCGAGGUUCUGCAGAUCGGAAGAGCACACGU | 6.95 ± 0.6 |
| target 3 insG 3' of 6,insA 3' of 2 (mixed) RNA 1: CACCCGUGCAAAAUUGCAGGGGUCUAAAACGACCUGAAUAUUUCAGAUCAAA RNA 2: GGGAAUGGAUCCACAUCUACGAAUUCGUUUUUGAUCUGAAAUAUUCGAGGUACUGCAGAUCGGAAGAGCACACGU | 15.6 ± 1.85 |
| target 3 insG 3' of 9,insC 3' of 5 (mixed) RNA 1: CACCCGUGCAAAAUUGCAGGGGUCUAAAACGACCUGAAUAUUUCAGAUCAAA RNA 2: GGGAAUGGAUCCACAUCUACGAAUUCGUUUUUGAUCUGAAAUAGUUCACGGUCUGCAGAUCGGAAGAGCACACGU | 80.5 ± 12.5 |
| target 3 G4A,U22C (mixed) RNA 1: CACCCGUGCAAAAUUGCAGGGGUCUAAAACGACCUGAAUAUUUCAGAUCAAA RNA 2: GGGAAUGGAUCCACAUCUACGAAUUCGUUCUUGAUCUGAAAUAUUCAAGUCUGCAGAUCGGAAGAGCACACGU | 7.05 ± 1 |
| target 3 U8G,U22A (mixed) RNA 1: CACCCGUGCAAAAUUGCAGGGGUCUAAAACGACCUGAAUAUUUCAGAUCAAA RNA 2: GGGAAUGGAUCCACAUCUACGAAUUCGUUAUUGAUCUGAAAUAGUCAGGUCUGCAGAUCGGAAGAGCACACGU | 72.5 ± 13.5 |
| target 3 insU 3' of 6,insU 3' of 4 (mixed) RNA 1: CACCCGUGCAAAAUUGCAGGGGUCUAAAACGACCUGAAUAUUUCAGAUCAAA RNA 2: GGGAAUGGAUCCACAUCUACGAAUUCGUUUUUGAUCUGAAAUAUUCUAGUGUCUGCAGAUCGGAAGAGCACACGU | 6.95 ± 0.7 |
| target 3 insU 3' of 22,insU 3' of 4 (mixed) RNA 1: CACCCGUGCAAAAUUGCAGGGGUCUAAAACGACCUGAAUAUUUCAGAUCAAA RNA 2: GGGAAUGGAUCCACAUCUACGAAUUCGUUUUUUGAUCUGAAAUAUUCAGUGUCUGCAGAUCGGAAGAGCACACGU | 4.9 ± 0.95 |
| target 3 insU 3' of 6,insG 3' of 5 (mixed) RNA 1: CACCCGUGCAAAAUUGCAGGGGUCUAAAACGACCUGAAUAUUUCAGAUCAAA RNA 2: GGGAAUGGAUCCACAUCUACGAAUUCGUUUUUGAUCUGAAAUAUUCUAGGGUCUGCAGAUCGGAAGAGCACACGU | 10.9 ± 0.9 |
| target 1 C7U,U19C (mixed) RNA 1: CACCCGUGCAAAAAUGCAGGGGUCUAAAACUGAGCGGAUAACCUCUCUAUGG RNA 2: GGGAAUGGAUCCACAUCUACGAAUUCGUACCACAGAGAGGUUAUUCGCUCACCGAGAUCGGAAGAGCACACGU | 23.5 ± 1.7 |
| target 3 A12C,U22C (mixed) RNA 1: CACCCGUGCAAAAUUGCAGGGGUCUAAAACGACCUGAAUAUUUCAGAUCAAA RNA 2: GGGAAUGGAUCCACAUCUACGAAUUCGUUCUUGAUCUGACAUAUUCAGGUCUGCAGAUCGGAAGAGCACACGU | 53 ± 20 |
| target 3 U7A,U22C (mixed) RNA 1: CACCCGUGCAAAAUUGCAGGGGUCUAAAACGACCUGAAUAUUUCAGAUCAAA RNA 2: GGGAAUGGAUCCACAUCUACGAAUUCGUUCUUGAUCUGAAAUAUACAGGUCUGCAGAUCGGAAGAGCACACGU | 41 ± 6.5 |
| target 3 U2G,C6A (mixed) RNA 1: CACCCGUGCAAAAUUGCAGGGGUCUAAAACGACCUGAAUAUUUCAGAUCAAA RNA 2: GGGAAUGGAUCCACAUCUACGAAUUCGUUUUUGAUCUGAAAUAUUAAGGGCUGCAGAUCGGAAGAGCACACGU | 11.3 ± 1.4 |
| target 3 insG 3' of 7,insC 3' of 7 (mixed) RNA 1: CACCCGUGCAAAAUUGCAGGGGUCUAAAACGACCUGAAUAUUUCAGAUCAAA RNA 2: GGGAAUGGAUCCACAUCUACGAAUUCGUUUUUGAUCUGAAAUAUUGCCAGGUCUGCAGAUCGGAAGAGCACACGU | 44.5 ± 5 |
| target 3 insC 3' of 5,insC 3' of 3 (mixed) RNA 1: CACCCGUGCAAAAUUGCAGGGGUCUAAAACGACCUGAAUAUUUCAGAUCAAA RNA 2: GGGAAUGGAUCCACAUCUACGAAUUCGUUUUUGAUCUGAAAUAUUCACGGCUCUGCAGAUCGGAAGAGCACACGU | 19.6 ± 1.9 |
| target 3 C16U,U22C (mixed) RNA 1: CACCCGUGCAAAAUUGCAGGGGUCUAAAACGACCUGAAUAUUUCAGAUCAAA RNA 2: GGGAAUGGAUCCACAUCUACGAAUUCGUUCUUGAUUUGAAAUAUUCAGGUCUGCAGAUCGGAAGAGCACACGU | 81.5 ± 30 |
| target 3 del21,del22 (mixed) RNA 1: CACCCGUGCAAAAUUGCAGGGGUCUAAAACGACCUGAAUAUUUCAGAUCAAA RNA 2: GGGAAUGGAUCCACAUCUACGAAUUCGUUUGAUCUGAAAUAUUCAGGUCUGCAGAUCGGAAGAGCACACGU | 13.4 ± 1.7 |
| target 3 C1A,A9G (mixed) RNA 1: CACCCGUGCAAAAUUGCAGGGGUCUAAAACGACCUGAAUAUUUCAGAUCAAA RNA 2: GGGAAUGGAUCCACAUCUACGAAUUCGUUUUUGAUCUGAAAUGUUCAGGUAUGCAGAUCGGAAGAGCACACGU | 61 ± 16.5 |
| target 3 U2A,G4C (mixed) RNA 1: CACCCGUGCAAAAUUGCAGGGGUCUAAAACGACCUGAAUAUUUCAGAUCAAA RNA 2: GGGAAUGGAUCCACAUCUACGAAUUCGUUUUUGAUCUGAAAUAUUCACGACUGCAGAUCGGAAGAGCACACGU | 5.05 ± 0.55 |
| target 3 U2G,U7A (mixed) RNA 1: CACCCGUGCAAAAUUGCAGGGGUCUAAAACGACCUGAAUAUUUCAGAUCAAA RNA 2: GGGAAUGGAUCCACAUCUACGAAUUCGUUUUUGAUCUGAAAUAUACAGGGCUGCAGAUCGGAAGAGCACACGU | 6.55 ± 0.85 |
| target 1 insU 3' of 20,insA 3' of 2 (mixed) RNA 1: CACCCGUGCAAAAAUGCAGGGGUCUAAAACUGAGCGGAUAACCUCUCUAUGG RNA 2: GGGAAUGGAUCCACAUCUACGAAUUCGUACCAUUAGAGAGGUUAUCCGCUCAACCGAGAUCGGAAGAGCACACGU | 12 ± 0.7 |
| target 3 insC 3' of 8,insC 3' of 3 (mixed) RNA 1: CACCCGUGCAAAAUUGCAGGGGUCUAAAACGACCUGAAUAUUUCAGAUCAAA RNA 2: GGGAAUGGAUCCACAUCUACGAAUUCGUUUUUGAUCUGAAAUAUCUCAGGCUCUGCAGAUCGGAAGAGCACACGU | 77 ± 23 |
| target 3 insU 3' of 22,insA 3' of 2 (mixed) RNA 1: CACCCGUGCAAAAUUGCAGGGGUCUAAAACGACCUGAAUAUUUCAGAUCAAA RNA 2: GGGAAUGGAUCCACAUCUACGAAUUCGUUUUUUGAUCUGAAAUAUUCAGGUACUGCAGAUCGGAAGAGCACACGU | 26.2 ± 2.5 |
| target 3 G4A,C6G (mixed) RNA 1: CACCCGUGCAAAAUUGCAGGGGUCUAAAACGACCUGAAUAUUUCAGAUCAAA RNA 2: GGGAAUGGAUCCACAUCUACGAAUUCGUUUUUGAUCUGAAAUAUUGAAGUCUGCAGAUCGGAAGAGCACACGU | 42 ± 4.5 |
